The supplement of paper PMC9732359
± gives the uncertainty stated by the source.

assay: protein stability index of a GFP-peptide fusion (yeast GPS) (PSI 1-4); higher = more stable; sorted into four equal gates, so the index is relative within each strain; details: doa10∆
How it was run: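 Plasmids isolated from each sorting gate were PCR-amplified and Illumina-sequenced, and barcodes assigned the reads to strains. The gates, four of equal size, were set by GFP/Cherry fluorescence ratio on mid-log cultures in leucine-free medium. These cultures were yeast carrying a pooled library of tiled 17-residue yeast protein peptides fused downstream of GFP on a plasmid that also expresses Cherry. The protein stability index is the sum of every gate's read frequency times its gate number.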

Point of comparison: RAFTKKVSSASAAASES [RPL16B], protein stability index 2.42 ± 0.065. Against it:
- QSQPQEKFSEKMLKIWT [ECM29] — higher, 3.57 ± 0.26
- QSSRVVSLSQLLFIVGQ [YCS4] — lower, 1.75 ± 0.063
- QTQREKAPLQPNSERET [IRR1] — higher, 3.1 ± 0.061
- QTRKEYNTSILEFRWLT [SIN4] — lower, 1.74 ± 0.073
- QTSRGLFGNNNTNNINN [YGL172W/NUP49] — higher, 3.1 ± 0.18
- QTYGETTAVDALQKGLK [RPC19] — lower, 2.03 ± 0.13
- QVEYALEAIKQGSVTVG [PRE5] — higher, 2.92 ± 0.12
- QVIKNEVCAKMPNIELY [SSN2] — higher, 2.83 ± 0.076
- QVLFQGLIYSFNEENGE [POP1] — higher, 3.1 ± 0.13
- QVLLDEEYKQLVKDRKF [RPO21] — higher, 3.07 ± 0.085
- QVLMDINTLNGGSSDTA [GAL11] — higher, 3.29 ± 0.074
- QWSRIVLQNVFKLVSTP [MED1] — lower, 1.4 ± 0.039
- RAFQKQPHIFNNPKVKT [RPS11A] — within error, 2.33 ± 0.052
- RAGQRGYHSRTSINHKI [RPL3] — higher, 2.85 ± 0.13
- RAGQRTRFKAVVVVGDS [RPS2] — lower, 2.07 ± 0.056
- RAHGRINKYESSPSHIE [RPL17A] — higher, 2.9 ± 0.07
- RALRIETGNFSWASEGI [RPS8A] — higher, 3.15 ± 0.036
- RAQEEVKRIQSVPLVIG [RPT3] — higher, 3.52 ± 0.13
- RCGRRSFHVQKKTCSSC [RPL37A] — lower, 2.3 ± 0.04
- RDHEKDTYRTLMEEIES [YIL149C/MLP2] — higher, 3.31 ± 0.044
- RDMTYSAPIYVDIEYTR [RET1] — lower, 2.17 ± 0.092
- RDQGNDSLNDDLNKENK [YIL149C/MLP2] — higher, 3.23 ± 0.18
- RDVRDQAAGGLSIRLTN [RPN8] — higher, 2.89 ± 0.087
- RDYSKEILGINLANEQP [SIR4] — higher, 2.71 ± 0.048
- REIESLIAEETNNKKLL [SMC3] — higher, 2.78 ± 0.18
- RELARIKKYASVVRVLV [RPL3] — lower, 1.32 ± 0.09
- RELEQIKPKIALQDKEI [SNF12] — higher, 3.15 ± 0.18
- RELLNPRYTYHTIFSDV [YML031W/NDC1] — higher, 3.01 ± 0.053
- REQHIDTICQSIQEQIQ [SNF5] — higher, 3.12 ± 0.068
- RFEKAVKHVFGKTIVVK [SMC3] — higher, 2.76 ± 0.21
- RFKNSVKWYHFDHNDKK [PRE7] — within error, 2.32 ± 0.057
- RFKVVKVSGVSLLALWK [RPS23A] — within error, 2.55 ± 0.22
- RFQKCFPPGVIGIDEGS [RPC40] — lower, 2.15 ± 0.11
- RFVIWTEAAFTKLDQVW [RPL4A] — higher, 3.18 ± 0.11
- RGFFDILSLATEGCIGL [MCD1] — higher, 2.87 ± 0.1
- RGGVKRISGLIYEEVRA [HHF1] — higher, 3.35 ± 0.13
- RGKKGLKKKVVDPFTRK [RPS1B] — higher, 3.73 ± 0.15
- RGNIKVMFATNRPNTLD [RPT1] — higher, 2.91 ± 0.079
- RGRGRGRGRGRGRPPKA [SNF2] — higher, 3.22 ± 0.075
- RGRPPKARNGLDYVRTP [SNF2] — lower, 1.52 ± 0.096
- RGVDAGKGNTFEKVGSH [RPN14] — within error, 2.71 ± 0.24
- RHLVNRGREEAASFKKL [PRE10] — higher, 3.07 ± 0.059
- RHSGKVYPITLSTDATS [UBP6] — lower, 1.98 ± 0.072
- RIHAKNFEAALFAKSSS [GAL11] — higher, 2.67 ± 0.086
- RIKITANNNMNDELVEL [GRR1] — within error, 2.35 ± 0.051
- RIMSTRCMMAAQYFYSG [DIS3] — lower, 1.67 ± 0.06
- RIQLMNDFTTKLINIKK [MED1] — higher, 2.89 ± 0.081
- RIVGSELIQKYLGDGPR [RPT2] — lower, 2.21 ± 0.14
- RIYDREPTVRIQAVFCL [YCG1] — within error, 2.47 ± 0.11
- RKINLFYLYMLVQKFGG [SWI1] — lower, 1.59 ± 0.099
- RKLAVERAGHLLCDKAQ [PRE5] — higher, 3.47 ± 0.15
- RKNFKMGPLYQNFAEFM [IRR1] — lower, 1.33 ± 0.037
- RKQIDETQVLVSTPEKW [BRR2] — lower, 2.07 ± 0.052
- RKRHQRALKVRNAQAQR [RPS6A] — higher, 3.04 ± 0.14
- RKWVIFITKHLPLLILE [NUT1] — lower, 1.7 ± 0.067
- RLAEVNLKDLNNVKQMV [RPO21] — higher, 2.77 ± 0.26
- RLDSYKVIEQPITSETA [RPL25] — lower, 1.94 ± 0.055
- RLELPVDFQNDLKDILE [BRR2] — higher, 2.83 ± 0.14
- RLERRINLTKVTQKDIC [CSI1] — higher, 2.88 ± 0.079
- RLGDLGVIDDSFDVAIS [SMC4] — higher, 2.85 ± 0.14
- RLGSKKLVEIIWNDVVY [YJL039C/NUP192] — higher, 3.4 ± 0.17
- RLKDVEWVKLHRLLQRA [RMP1] — higher, 3.16 ± 0.085
- RLKEKGSRVLIFSQMSR [ISW2] — lower, 1.67 ± 0.056
- RLLSALGPRGVSITPGK [SRP21] — higher, 2.97 ± 0.078
- RLNNVFVIGEQGKPYIS [RPS4A] — higher, 2.66 ± 0.11
- RLPHQFRPIEIFTDFLP [RRP42] — lower, 1.86 ± 0.068
- RLPVSEDTNTKPLFDFG [YOR098C/NUP1] — higher, 2.76 ± 0.13
- RLTFKPWVVYLQILAML [YMR129W/POM152] — lower, 1.23 ± 0.07
- RLTKQAFDWVLSNIEAQ [RPO21] — higher, 3.2 ± 0.12
- RLTRLWIKNEQERQRQI [PRP8] — the same, 2.42 ± 0.14
- RLYVKGKHLSYQRSKRV [RPL33A] — lower, 2.1 ± 0.063
- RMAKYLNNTHVISSGPL [RPC53] — higher, 2.96 ± 0.13
- RMERIKDHLLLEEEFVS [RPT2] — within error, 2.24 ± 0.12
- RMLLNLCKSATTKMWPT [BRR2] — lower, 1.47 ± 0.068
- RMLSSILDINVSSSKNK [SWP82] — higher, 2.71 ± 0.051
- RNDSTVNDSVISAPSME [BRN1] — higher, 2.71 ± 0.085

same assay, conditions: pdr5∆

Point of comparison: RFKNSVKWYHFDHNDKK [PRE7], protein stability index 2.76 ± 0.064. Against it:
- QSQPQEKFSEKMLKIWT [ECM29] — higher, 3.08 ± 0.15
- QSSRVVSLSQLLFIVGQ [YCS4] — lower, 1.33 ± 0.048
- QTQREKAPLQPNSERET [IRR1] — higher, 3.2 ± 0.059
- QTRKEYNTSILEFRWLT [SIN4] — lower, 1.74 ± 0.059
- QTSRGLFGNNNTNNINN [YGL172W/NUP49] — higher, 3.04 ± 0.13
- QTYGETTAVDALQKGLK [RPC19] — lower, 1.1 ± 0.12
- QVEYALEAIKQGSVTVG [PRE5] — higher, 3.33 ± 0.21
- QVIKNEVCAKMPNIELY [SSN2] — within error, 2.81 ± 0.058
- QVLFQGLIYSFNEENGE [POP1] — higher, 3.24 ± 0.18
- QVLLDEEYKQLVKDRKF [RPO21] — higher, 3.28 ± 0.06
- QVLMDINTLNGGSSDTA [GAL11] — higher, 3.22 ± 0.072
- QWSRIVLQNVFKLVSTP [MED1] — lower, 1.24 ± 0.043
- RAFQKQPHIFNNPKVKT [RPS11A] — lower, 2.48 ± 0.043
- RAFTKKVSSASAAASES [RPL16B] — lower, 2.19 ± 0.052
- RAGQRGYHSRTSINHKI [RPL3] — higher, 3.23 ± 0.14
- RAGQRTRFKAVVVVGDS [RPS2] — lower, 2.2 ± 0.063
- RAHGRINKYESSPSHIE [RPL17A] — higher, 3.4 ± 0.077
- RALRIETGNFSWASEGI [RPS8A] — higher, 3.15 ± 0.037
- RAQEEVKRIQSVPLVIG [RPT3] — higher, 3.16 ± 0.15
- RCGRRSFHVQKKTCSSC [RPL37A] — lower, 2.56 ± 0.061
- RDHEKDTYRTLMEEIES [YIL149C/MLP2] — higher, 3.38 ± 0.043
- RDMTYSAPIYVDIEYTR [RET1] — lower, 1.98 ± 0.083
- RDVRDQAAGGLSIRLTN [RPN8] — within error, 2.85 ± 0.095
- RDYSKEILGINLANEQP [SIR4] — higher, 3.04 ± 0.044
- REIESLIAEETNNKKLL [SMC3] — within error, 2.86 ± 0.082
- RELARIKKYASVVRVLV [RPL3] — lower, 1.17 ± 0.12
- RELEQIKPKIALQDKEI [SNF12] — higher, 3.35 ± 0.17
- RELLNPRYTYHTIFSDV [YML031W/NDC1] — higher, 3.05 ± 0.052
- RENNFRVASDTVHEMEE [SMC4] — higher, 3.36 ± 0.28
- REQHIDTICQSIQEQIQ [SNF5] — higher, 3.25 ± 0.11
- RFEKAVKHVFGKTIVVK [SMC3] — higher, 3.58 ± 0.2
- RFKVVKVSGVSLLALWK [RPS23A] — lower, 1.59 ± 0.14
- RFQKCFPPGVIGIDEGS [RPC40] — lower, 2.15 ± 0.22
- RFVIWTEAAFTKLDQVW [RPL4A] — lower, 2.39 ± 0.096
- RGFFDILSLATEGCIGL [MCD1] — higher, 3.03 ± 0.057
- RGGVKRISGLIYEEVRA [HHF1] — higher, 3.13 ± 0.2
- RGKKGLKKKVVDPFTRK [RPS1B] — higher, 3.34 ± 0.082
- RGNIKVMFATNRPNTLD [RPT1] — higher, 3.05 ± 0.088
- RGRGRGRGRGRGRPPKA [SNF2] — higher, 3.2 ± 0.066
- RGRPPKARNGLDYVRTP [SNF2] — lower, 1.67 ± 0.087
- RGVDAGKGNTFEKVGSH [RPN14] — within error, 2.98 ± 0.17
- RHLVNRGREEAASFKKL [PRE10] — higher, 3.2 ± 0.1
- RHSGKVYPITLSTDATS [UBP6] — the same, 2.76 ± 0.066
- RIHAKNFEAALFAKSSS [GAL11] — lower, 2.54 ± 0.072
- RIKITANNNMNDELVEL [GRR1] — lower, 2.41 ± 0.053
- RIMSTRCMMAAQYFYSG [DIS3] — lower, 1.95 ± 0.058
- RIQLMNDFTTKLINIKK [MED1] — within error, 2.81 ± 0.099
- RIVGSELIQKYLGDGPR [RPT2] — higher, 3.14 ± 0.16
- RIYDREPTVRIQAVFCL [YCG1] — lower, 1.72 ± 0.15
- RKINLFYLYMLVQKFGG [SWI1] — lower, 1.23 ± 0.048
- RKLAVERAGHLLCDKAQ [PRE5] — higher, 3.18 ± 0.11
- RKNFKMGPLYQNFAEFM [IRR1] — lower, 1.54 ± 0.06
- RKQIDETQVLVSTPEKW [BRR2] — lower, 2.46 ± 0.058
- RKRHQRALKVRNAQAQR [RPS6A] — higher, 2.96 ± 0.1
- RKWVIFITKHLPLLILE [NUT1] — lower, 1.25 ± 0.045
- RLDSYKVIEQPITSETA [RPL25] — lower, 2.31 ± 0.079
- RLELPVDFQNDLKDILE [BRR2] — higher, 3.09 ± 0.084
- RLERRINLTKVTQKDIC [CSI1] — within error, 2.82 ± 0.13
- RLGDLGVIDDSFDVAIS [SMC4] — lower, 2 ± 0.14
- RLGSKKLVEIIWNDVVY [YJL039C/NUP192] — higher, 3.43 ± 0.12
- RLKDVEWVKLHRLLQRA [RMP1] — higher, 3.13 ± 0.093
- RLKEKGSRVLIFSQMSR [ISW2] — lower, 2.19 ± 0.066
- RLLSALGPRGVSITPGK [SRP21] — higher, 3.04 ± 0.074
- RLNNVFVIGEQGKPYIS [RPS4A] — higher, 3.02 ± 0.094
- RLPHQFRPIEIFTDFLP [RRP42] — lower, 1.96 ± 0.07
- RLPVSEDTNTKPLFDFG [YOR098C/NUP1] — the same, 2.76 ± 0.12
- RLTFKPWVVYLQILAML [YMR129W/POM152] — lower, 1.22 ± 0.06
- RLTKQAFDWVLSNIEAQ [RPO21] — within error, 2.93 ± 0.12
- RLTRLWIKNEQERQRQI [PRP8] — within error, 2.56 ± 0.26
- RLYVKGKHLSYQRSKRV [RPL33A] — lower, 1.75 ± 0.046
- RMAKYLNNTHVISSGPL [RPC53] — within error, 2.91 ± 0.16
- RMERIKDHLLLEEEFVS [RPT2] — lower, 2.22 ± 0.097
- RMLLNLCKSATTKMWPT [BRR2] — lower, 1.79 ± 0.1
